The values below come from article PMC5597230, “Identification and characterization of preferred DNA-binding sites for the Thermus thermophilus transcriptional regulator FadR”.

Holding throughout (conditions): protein: recombinant; tags: none stated (pET-11a); chain copies: 2; label: IRD700
For data set [1], the target named is T1, FadR (Thermus thermophilus HB8, UniProt Q5SM42 1-205).
T1 sequence: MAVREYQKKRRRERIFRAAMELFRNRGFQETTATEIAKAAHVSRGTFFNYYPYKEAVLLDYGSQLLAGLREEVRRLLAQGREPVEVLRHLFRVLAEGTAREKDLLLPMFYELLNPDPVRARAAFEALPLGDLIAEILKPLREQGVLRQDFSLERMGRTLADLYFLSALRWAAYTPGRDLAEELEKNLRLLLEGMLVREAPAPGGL
The data set can be described thus: EMSA; EMSA as in previous SbtR study (buffer, salt, pH, temperature not given in the material); FadR titrations up to 600 nM, IRD700-labeled probes. In general terms: In EMSA bound probe runs differently from free probe, usually more slowly.

Data set [2] deals with T1, FadR. The data set can be described thus: EMSA; range stated for m1,m3,m4,m5,m7; exact value only in figure; EMSA as in previous SbtR study (buffer, salt, pH, temperature not given in the material); FadR titrations up to 600 nM, IRD700-labeled probes.
The target of data set [3] is T1, FadR. The data set can be described thus: EMSA; Kd in figure only; all promoter probes 0.053-11 nM; EMSA as in previous SbtR study (buffer, salt, pH, temperature not given in the material); FadR titrations up to 600 nM, IRD700-labeled probes.
The target of data set [4] is T1, FadR. The data set can be described thus: EMSA; very low KD stated; value in figure only; EMSA as in previous SbtR study (buffer, salt, pH, temperature not given in the material); FadR titrations up to 600 nM, IRD700-labeled probes.

B1: ST2_FadR_R5_wt (dsDNA)
DNA 1: AGGAATTCGTGCAGAGGTGAATTTGGACTTAGTCCAATTACCATCCCTCCAGAAGCTTGG
DNA 2: CCAAGCTTCTGGAGGGATGGTAATTGGACTAAGTCCAAATTCACCTCTGCACGAATTCCT
As for B1, in the data set with FadR [1], the Kd (commonly the free concentration of one partner at which half of the binding sites on the other are occupied at equilibrium, for simple one-to-one binding) amounted to 0.17 nM.

B2: ST2_FadR_R5_m7 (dsDNA)
DNA 1: AGGAATTCGTGCAGAGGTGAATTTGGACATAGTCCAATTACCATCCCTCCAGAAGCTTGG
DNA 2: CCAAGCTTCTGGAGGGATGGTAATTGGACTATGTCCAAATTCACCTCTGCACGAATTCCT
B2: the Kd with FadR [2] is roughly 4.69 nM.

B3: ST2_FadR_R5_m4 (dsDNA)
DNA 1: AGGAATTCGTGCAGAGGTGAATTTGCACTTAGTCCAATTACCATCCCTCCAGAAGCTTGG
DNA 2: CCAAGCTTCTGGAGGGATGGTAATTGGACTAAGTGCAAATTCACCTCTGCACGAATTCCT
B3: in the data set with FadR [2], the Kd was roughly 4.69 nM.

B4: ST2_FadR_TTHA0402 (dsDNA)
DNA 1: AGGAATTCGTGCAGAGGTGAATTTGAACCCAGTATAATTACCATCCCTCCAGAAGCTTGG
DNA 2: CCAAGCTTCTGGAGGGATGGTAATTATACTGGGTTCAAATTCACCTCTGCACGAATTCCT
As for B4, the binding result with FadR [3] is on record as “binds”.

B5: ST2_FadR_TTHA1144 (dsDNA)
DNA 1: AGGAATTCGTGCAGAGGTGAATTTAGACTCGGTCAAATTACCATCCCTCCAGAAGCTTGG
DNA 2: CCAAGCTTCTGGAGGGATGGTAATTTGACCGAGTCTAAATTCACCTCTGCACGAATTCCT
As to B5, the binding result in the data set with FadR [3] is “binds”.

B6: ST2_FadR_TTHA0846 (dsDNA)
DNA 1: AGGAATTCGTGCAGAGGTGAATTTATACTCAGTACATTTACCATCCCTCCAGAAGCTTGG
DNA 2: CCAAGCTTCTGGAGGGATGGTAAATGTACTGAGTATAAATTCACCTCTGCACGAATTCCT
On to B6, for which, in the data set with FadR [3], the binding result was “binds”.

B7: ST2_FadR_TTHB017 (dsDNA)
DNA 1: AGGAATTCGTGCAGAGGTGAATTTATACTGGGTCCAATTACCATCCCTCCAGAAGCTTGG
DNA 2: CCAAGCTTCTGGAGGGATGGTAATTGGACCCAGTATAAATTCACCTCTGCACGAATTCCT
Consider B7, for which the binding result in the data set with FadR [4] was “binds”.

B8: ST2_FadR_TTHA1118 (dsDNA)
DNA 1: AGGAATTCGTGCAGAGGTGAATTTATACTCGGTAAAATTACCATCCCTCCAGAAGCTTGG
DNA 2: CCAAGCTTCTGGAGGGATGGTAATTTTACCGAGTATAAATTCACCTCTGCACGAATTCCT
As for B8, in the data set with FadR [3], the binding result was “binds”.

B9: ST2_FadR_R5_m1 (dsDNA)
DNA 1: AGGAATTCGTGCAGAGGTGAATGTGGACTTAGTCCAATTACCATCCCTCCAGAAGCTTGG
DNA 2: CCAAGCTTCTGGAGGGATGGTAATTGGACTAAGTCCACATTCACCTCTGCACGAATTCCT
As to B9, the Kd with FadR [2] was roughly 4.69 nM.

B10: ST2_FadR_TTHA1463 (dsDNA)
DNA 1: AGGAATTCGTGCAGAGGTGAATTTGAACCCGGTACAATTACCATCCCTCCAGAAGCTTGG
DNA 2: CCAAGCTTCTGGAGGGATGGTAATTGTACCGGGTTCAAATTCACCTCTGCACGAATTCCT
As to B10, in the data set with FadR [4], the binding result is on record as “binds”.

B11: ST2_FadR_R5_m3 (dsDNA)
DNA 1: AGGAATTCGTGCAGAGGTGAATTTCGACTTAGTCCAATTACCATCCCTCCAGAAGCTTGG
DNA 2: CCAAGCTTCTGGAGGGATGGTAATTGGACTAAGTCGAAATTCACCTCTGCACGAATTCCT
Consider B11, for which the Kd with FadR [2] was roughly 4.69 nM.

B12: ST2_FadR_TTHA0390 (dsDNA)
DNA 1: AGGAATTCGTGCAGAGGTGAATTTGAACCGGGTATAATTACCATCCCTCCAGAAGCTTGG
DNA 2: CCAAGCTTCTGGAGGGATGGTAATTATACCCGGTTCAAATTCACCTCTGCACGAATTCCT
As for B12, in the data set with FadR [3], the binding result is given as “binds”.

B13: ST2_FadR_TTHA0103 (dsDNA)
DNA 1: AGGAATTCGTGCAGAGGTGAATTTGGACCTGGTAAAATTACCATCCCTCCAGAAGCTTGG
DNA 2: CCAAGCTTCTGGAGGGATGGTAATTTTACCAGGTCCAAATTCACCTCTGCACGAATTCCT
On to B13, for which the binding result with FadR [3] is given as “binds”.

B14: ST2_FadR_R5_m5 (dsDNA)
DNA 1: AGGAATTCGTGCAGAGGTGAATTTGGGCTTAGTCCAATTACCATCCCTCCAGAAGCTTGG
DNA 2: CCAAGCTTCTGGAGGGATGGTAATTGGACTAAGCCCAAATTCACCTCTGCACGAATTCCT
Consider B14, for which the Kd with FadR [2] is roughly 4.69 nM.

B15: ST2_FadR_TTHA0604 (dsDNA)
DNA 1: AGGAATTCGTGCAGAGGTGAATTTATACTGGGTCTAATTACCATCCCTCCAGAAGCTTGG
DNA 2: CCAAGCTTCTGGAGGGATGGTAATTAGACCCAGTATAAATTCACCTCTGCACGAATTCCT
With B15, the binding result in the data set with FadR [3] is listed as “binds”.
